Laboratory results taken from patent publication US20030059827A1, “Engineered protein binding domains and methods and systems for their design and use” (priority 2001, published 2003).

Target: Biotin-GG-KQTSV
Assay: micro-calorimetry (isothermal titration)

B1: wild-type PDZ (PDZ3 of PSD095) domain, Q62108 302-402 (protein, mouse, UniProt Q62108 302-402, looked up)
chain: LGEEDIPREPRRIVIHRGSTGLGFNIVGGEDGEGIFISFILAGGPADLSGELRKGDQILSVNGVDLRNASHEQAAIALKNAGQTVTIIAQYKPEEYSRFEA
- Ka: 25700 M⁻¹
- Kd: 39 µM
